From publication PMC4609913 (2015)

Experiments:
[1] = target: recombinant ADAM17 (A Disintegrin and Metalloproteinase 17) (UniProt P78536 215-671); test: FRET
[2] = target: T1, recombinant ADAM10 (A Disintegrin and Metalloproteinase 10) (UniProt O14672 20-748); test: FRET
T1 chain: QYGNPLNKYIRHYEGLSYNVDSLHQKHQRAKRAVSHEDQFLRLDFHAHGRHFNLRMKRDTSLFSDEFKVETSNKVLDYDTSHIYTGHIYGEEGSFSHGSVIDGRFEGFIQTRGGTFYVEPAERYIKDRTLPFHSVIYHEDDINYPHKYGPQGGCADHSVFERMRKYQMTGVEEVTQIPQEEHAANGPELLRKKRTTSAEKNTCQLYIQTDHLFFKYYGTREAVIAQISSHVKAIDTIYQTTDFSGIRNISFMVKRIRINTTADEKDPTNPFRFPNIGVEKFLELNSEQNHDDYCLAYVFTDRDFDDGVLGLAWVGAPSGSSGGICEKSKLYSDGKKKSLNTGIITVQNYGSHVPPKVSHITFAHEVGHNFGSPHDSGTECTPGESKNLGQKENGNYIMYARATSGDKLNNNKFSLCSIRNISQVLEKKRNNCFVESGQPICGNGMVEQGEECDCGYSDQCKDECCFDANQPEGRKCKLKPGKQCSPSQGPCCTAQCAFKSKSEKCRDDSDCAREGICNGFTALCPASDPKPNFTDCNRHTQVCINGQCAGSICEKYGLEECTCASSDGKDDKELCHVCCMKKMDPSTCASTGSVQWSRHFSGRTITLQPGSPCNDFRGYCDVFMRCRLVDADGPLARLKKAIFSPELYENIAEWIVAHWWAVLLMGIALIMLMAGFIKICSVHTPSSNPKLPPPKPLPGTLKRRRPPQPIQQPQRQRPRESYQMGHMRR

Sequence of recombinant ADAM17 (A Disintegrin and Metalloproteinase 17) (P78536 215-671): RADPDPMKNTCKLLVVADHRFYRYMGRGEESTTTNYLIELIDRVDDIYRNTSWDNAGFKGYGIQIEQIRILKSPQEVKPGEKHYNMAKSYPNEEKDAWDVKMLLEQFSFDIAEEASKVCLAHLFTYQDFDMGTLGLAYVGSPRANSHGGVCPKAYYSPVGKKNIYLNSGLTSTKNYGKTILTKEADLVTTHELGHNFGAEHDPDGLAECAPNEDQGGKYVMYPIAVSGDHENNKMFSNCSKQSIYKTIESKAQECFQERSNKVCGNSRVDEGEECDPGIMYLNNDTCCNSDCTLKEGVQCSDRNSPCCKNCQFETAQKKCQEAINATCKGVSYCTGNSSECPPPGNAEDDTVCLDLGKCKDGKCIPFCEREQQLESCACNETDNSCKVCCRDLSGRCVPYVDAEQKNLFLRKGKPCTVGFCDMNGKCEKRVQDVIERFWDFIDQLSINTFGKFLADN

B1: recombinant His-tagged human ADAM12 prodomain (amino acids 29-206) (domain or fragment)
chain: RGVSLWNQGRADEVVSASVGSGDLWIPVKSFDSKNHPEVLNIRLQRESKELIINLERNEGLIASSFTETHYLQDGTDVSLARNYTVILGHCYYHGHVRGYSDSAVSLSTCSGLRGLIVFENESYVLEPMKSATNRYKLFPAKKLKSVRGSCGSHHNTPNLAAKNVFPPPSQTWARRHK
Ki [1]: > 14 µM
Ki [2]: > 14 µM
